{
  "source": "ChEMBL document CHEMBL1142204",
  "about": "“Cathepsin A is the major hydrolase catalyzing the intracellular hydrolysis of the antiretroviral nucleotide phosphonoamidate prodrugs GS-7340 and GS-9131” (Antimicrob Agents Chemother, 2007)",
  "proteins": {"B1": {"name": "Lysosomal protective protein (Homo sapiens), P10619 (protein)", "chain": "MIRAAPPPLFLLLLLLLLLVSWASRGEAAPDQDEIQRLPGLAKQPSFRQYSGYLKGSGSKHLHYWFVESQKDPENSPVVLWLNGGPGCSSLDGLLTEHGPFLVQPDGVTLEYNPYSWNLIANVLYLESPAGVGFSYSDDKFYATNDTEVAQSNFEALQDFFRLFPEYKNNKLFLTGESYAGIYIPTLAVLVMQDPSMNLQGLAVGNGLSSYEQNDNSLVYFAYYHGLLGNRLWSSLQTHCCSQNKCNFYDNKDLECVTNLQEVARIVGNSGLNIYNLYAPCAGGVPSHFRYEKDTVVVQDLGNIFTRLPLKRMWHQALLRSGDKVRMDPPCTNTTAASTYLNNPYVRKALNIPEQLPQWDMCNFLVNLQYRRLYRSMNSQYLKLLSSQKYQILLYNGDVDMACNFMGDEWFVDSLNQKMEVQRRPWLVKYGDSGEQIAGFVKEFSHIAFLTIKGAGHMVPTDKPLAAFTMFSRFLNKQPY"}},
  "key": {"[1]": {"substrate": "CC(C)OC(=O)[C@H](C)N[P@](=O)(CO[C@H](C)Cn1cnc2c(N)ncnc21)Oc1ccccc1", "assay": "Ratio of kcat to Km for Cat A activity", "settings": "Homo sapiens"}, "[2]": {"substrate": "CC(C)OC(=O)[C@H](C)N[P@](=O)(CO[C@H](C)Cn1cnc2c(N)ncnc21)Oc1ccccc1", "assay": "Activity of Cat A assessed as hydrolysis", "settings": "Homo sapiens"}},
  "data": [
    {"protein": "B1", "values": [
      {"measurement": "kcat/Km", "setting": "[1]", "value": "2.9e+06", "unit": "M⁻¹ s⁻¹"},
      {"measurement": "Km", "setting": "[2]", "value": 610, "unit": "µM"}
    ]}
  ]
}
